Target: human prostate-specific membrane antigen (PSMA) (human, UniProt Q04609 1-750)
Assay: cell-based or functional assay

human prostate-specific membrane antigen (PSMA), sequence (Q04609 whole entry): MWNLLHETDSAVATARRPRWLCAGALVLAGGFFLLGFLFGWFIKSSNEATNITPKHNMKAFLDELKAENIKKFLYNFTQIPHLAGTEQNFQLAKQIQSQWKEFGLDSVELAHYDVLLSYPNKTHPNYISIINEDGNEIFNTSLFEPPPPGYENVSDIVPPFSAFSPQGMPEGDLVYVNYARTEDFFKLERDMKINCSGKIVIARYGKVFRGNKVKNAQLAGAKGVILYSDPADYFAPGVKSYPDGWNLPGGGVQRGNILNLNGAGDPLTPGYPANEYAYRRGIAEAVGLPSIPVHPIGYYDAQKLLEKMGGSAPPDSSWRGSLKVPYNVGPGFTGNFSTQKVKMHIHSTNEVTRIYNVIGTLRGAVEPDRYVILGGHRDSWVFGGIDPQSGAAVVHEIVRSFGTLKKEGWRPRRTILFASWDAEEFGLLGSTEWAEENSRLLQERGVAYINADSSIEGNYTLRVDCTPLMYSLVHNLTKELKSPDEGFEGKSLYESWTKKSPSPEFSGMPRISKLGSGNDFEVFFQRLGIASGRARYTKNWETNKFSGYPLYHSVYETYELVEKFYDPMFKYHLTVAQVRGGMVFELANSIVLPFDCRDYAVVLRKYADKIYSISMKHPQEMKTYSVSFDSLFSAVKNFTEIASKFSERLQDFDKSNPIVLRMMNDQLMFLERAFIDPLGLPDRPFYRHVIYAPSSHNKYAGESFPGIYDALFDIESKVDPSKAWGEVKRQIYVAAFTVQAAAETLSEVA

expansion in total cell number after re-stimulation with PSMA, seven days: 4 fold
expansion of transduced T cells on NIH3T3 cells expressing PSMA alone, seven days: 8.6 fold
B1: P28z fusion receptor (J591 scFv - human CD28 hinge, transmembrane and intracellular portions - intracellular domain of human TCR zeta) (receptor, not shown: a dimerising Fc or GST; small tags and cut ends)
chain: IEVMYPPPYLDNEKSNGTIIHVKGKHLCPSPLFPGPSKPFWVLVVVGGVLACYSLLVTVAFIIFWVRSKRSRLLHSDYMNMTPRRPGPTRKHYQPYAPPRDFAAYRSRVKFSRSADAPAYQQGQNQLYNELNLGRREEYDVLDKRRGRDPEMGGKPRRKNPQEGLYNELQKDKMAEAYSEIGMKGERRRGKGHDGLYQGLSTATKDTYDALHMQALPPR

Source: US20040043401A1 (SLOAN KETTERING INSTITUTE FOR CANCER RESEARCH, published 2004)
